Data set [1] is described as follows: Thermal shift assay of streptavidin proteins. Type of data set: physicochemical. As to conditions: at 100° C., 10 μM protein, 1×PBS, guanidine-HCl 0 to 2 M, SYPRO Orange. How it is done:
The following 5 types of proteins, a native streptavidin, mcSA040, mcSA072, mcSA314 and mcSA414, which had been purified in accordance with Example 2, were subjected to a thermal shift assay (Vedadi, (2006), Proc Natl Sci USA., 103(43), 15835-15840). Each sample was prepared in a real-time PCR tube (PCR Tube Strip, Flat Cap Strip; manufactured by BIO-RAD), so that the samples could have the following final concentrations. That is, SYPRO Orange was 5000-fold diluted, the concentration of each protein was set at 10 μM, and the buffer was set at 1×PBS. Moreover, for the purpose of accelerating the heat denaturation of each protein, the concentration of a guanidine-HCl solution was set at 0 M, 0.5 M, 1M and 2 M as a final concentration. The reaction volume was set at 20 μl. The CFX96 Real-Time PCR detection system (manufactured by BIO-RAD) was used as a measurement device. As a program mode of the CFX96 Real-Time PCR detection system, a program mode for use in FRET detection was used. The reaction and detection were carried out by a program for increasing the temperature by 0.5° C. every 10 seconds.

A short description of data set [2]: Kinetics analysis of interaction between streptavidin protein and biotin using Biacore biosensor. Type of data set: binding. The settings on record: for Association rate constant ka / Dissociation rate constant kd: Biacore 3000, biotinylated mouse antibody captured, 1:1 binding model; for Kd: Biacore 3000, obtained from kd/ka, read-out: Dissociation constant Kd. How it is done: As a ligand (a substance to be attached to a sensor chip) used for a Biacore (registered trademark) biosensor, an anti-mouse IgG antibody (manufactured by GE Healthcare Biosciences) was used. On the other hand, as analytes (substances to be supplied to the flow channel system), a biotinylated mouse antibody and various types of mutant streptavidins were prepared, and intermolecular interaction was then analyzed using Biacore (registered trademark) 3000 (a biosensor based on the principle of surface plasmon resonance; manufactured by GE Healthcare Biosciences). The anti-mouse IgG antibody was immobilized on all of the flow cells of a CM5 sensor chip according to an amine coupling method. The amount of the antibody immobilized on each flow cell was 8000 RU. Subsequently, as references, non-biotinylated mouse antibodies were captured onto Flow Cells 1 and 3, and biotinylated mouse antibodies were captured onto Flow Cells 2 and 4. Various types of streptavidins were loaded in a running buffer (HBS-EP; manufactured by GE Healthcare Biosciences) on Flow Cells 1 and 2, or 3 and 4, at a flow rate of 20 μl/min for 2 minutes. Thereafter, dissociation of each sample was monitored for 7 minutes. Thereafter, a reproduction operation was carried out using a 10 mM glycine-HCl buffer (pH 1.7) (manufactured by GE Healthcare Biosciences), and repeat measurement was then carried out. Using the analysis software BIAevaluation ver. 4.1, a reaction kinetics analysis was performed on a 1:1 binding model based on the obtained sensorgram, so as to calculate an association rate constant (ka) and a dissociation rate constant (kd). A dissociation constant (Kd) was obtained from kd/ka.
The results of the kinetics analysis of the intermolecular interaction of a recombinant streptavidin and a biotin, which was carried out using Biacore (registered trademark) 3000 (a biosensor based on the principle of surface plasmon resonance; manufactured by GE Healthcare Biosciences), are as shown in Table 2.

We go through twelve molecules from US8546537B2, “Streptavidin having low immunogenicity and use thereof” (The University of Tokyo, priority 2009, dated 2013).

B1: mcSA040: mutant core streptavidin with Y83S, R84K, E116Q (protein)
core streptavidin subunit: AEAGITGTWYNQLGSTFIVTAGADGALTGTYESAVGNAESRYVLTGRYDSAPATDGSGTALGWTVAWKNNSKNAHSATTWSGQYVGGAEARINTQWLLTSGTTQANAWKSTLVGHDTFTKVKPSAAS
Regarding B1, in data set [1], the “thermal stability compared with native streptavidin” value was “thermal stability equivalent to that of the native streptavidin”.

B2: mcSA124: mutant core streptavidin with Y22T, Y83A, R84K, E101D, R103K, E116N (protein)
core streptavidin subunit: AEAGITGTWTNQLGSTFIVTAGADGALTGTYESAVGNAESRYVLTGRYDSAPATDGSGTALGWTVAWKNNAKNAHSATTWSGQYVGGADAKINTQWLLTSGTTNANAWKSTLVGHDTFTKVKPSAAS
Take B2: in data set [2], the “Association rate constant ka” value is listed as 3.06 × 10^5 M^−1 S^−1, the “Dissociation rate constant kd” value is listed as 5.38 × 10^−5 S^−1 and the Kd came out at 176 pM.

B3: mcSA414: mutant core streptavidin with Y22S, Y83S, R84K, E101D, R103K, E116Q (protein)
core streptavidin subunit: AEAGITGTWSNQLGSTFIVTAGADGALTGTYESAVGNAESRYVLTGRYDSAPATDGSGTALGWTVAWKNNSKNAHSATTWSGQYVGGADAKINTQWLLTSGTTQANAWKSTLVGHDTFTKVKPSAAS
Regarding B3, in data set [1], the “thermal stability compared with native streptavidin” value was “thermal stability equivalent to that of the native streptavidin”. For the same molecule, in data set [2], the “Association rate constant ka” value was 2.31 × 10^5 M^−1 S^−1, the “Dissociation rate constant kd” value is recorded as 5.18 × 10^−5 S^−1 and the equilibrium dissociation constant (Kd) is 243 pM.

B4: mcSA224: mutant core streptavidin with Y22T, Y83A, R84K, E101D, R103K, E116Q (protein)
core streptavidin subunit: AEAGITGTWTNQLGSTFIVTAGADGALTGTYESAVGNAESRYVLTGRYDSAPATDGSGTALGWTVAWKNNAKNAHSATTWSGQYVGGADAKINTQWLLTSGTTQANAWKSTLVGHDTFTKVKPSAAS
Consider B4, for which, in data set [2], the “Association rate constant ka” value is 2.11 × 10^5 M^−1 S^−1, the “Dissociation rate constant kd” value is 1.01 × 10^−4 S^−1 and the dissociation constant (Kd) is 481 pM.

B5: mcSA214: mutant core streptavidin with Y22S, Y83A, R84K, E101D, R103K, E116Q (protein)
core streptavidin subunit: AEAGITGTWSNQLGSTFIVTAGADGALTGTYESAVGNAESRYVLTGRYDSAPATDGSGTALGWTVAWKNNAKNAHSATTWSGQYVGGADAKINTQWLLTSGTTQANAWKSTLVGHDTFTKVKPSAAS
Consider B5, for which, in data set [2], the “Association rate constant ka” value is listed as 2.64 × 10^5 M^−1 S^−1, the “Dissociation rate constant kd” value is given as 1.21 × 10^−4 S^−1 and the Kd is 459 pM.

B6: mcSA010: mutant core streptavidin with Y83A, R84K, E116N (protein)
core streptavidin subunit: AEAGITGTWYNQLGSTFIVTAGADGALTGTYESAVGNAESRYVLTGRYDSAPATDGSGTALGWTVAWKNNAKNAHSATTWSGQYVGGAEARINTQWLLTSGTTNANAWKSTLVGHDTFTKVKPSAAS
As to B6, in data set [2], the “Dissociation rate constant kd” value is 8.96 × 10^−5 S^−1 and the Kd is 225 pM.

B7: mcSA030: mutant core streptavidin with Y83S, R84K, E116N (protein)
core streptavidin subunit: AEAGITGTWYNQLGSTFIVTAGADGALTGTYESAVGNAESRYVLTGRYDSAPATDGSGTALGWTVAWKNNSKNAHSATTWSGQYVGGAEARINTQWLLTSGTTNANAWKSTLVGHDTFTKVKPSAAS
Turning to B7, in data set [2], the “Dissociation rate constant kd” value is 1.55 × 10^−4 S^−1 and the dissociation constant Kd amounted to 399 pM.

B8: mcSA020: mutant core streptavidin with Y83A, R84K, E116Q (protein)
core streptavidin subunit: AEAGITGTWYNQLGSTFIVTAGADGALTGTYESAVGNAESRYVLTGRYDSAPATDGSGTALGWTVAWKNNAKNAHSATTWSGQYVGGAEARINTQWLLTSGTTQANAWKSTLVGHDTFTKVKPSAAS
For the molecule B8, in data set [2], the “Dissociation rate constant kd” value is given as 1.60 × 10^−4 S^−1 and the dissociation constant (Kd) was 427 pM.

B9: mcSA114: mutant core streptavidin with Y22S, Y83A, R84K, E101D, R103K, E116N (protein)
core streptavidin subunit: AEAGITGTWSNQLGSTFIVTAGADGALTGTYESAVGNAESRYVLTGRYDSAPATDGSGTALGWTVAWKNNAKNAHSATTWSGQYVGGADAKINTQWLLTSGTTNANAWKSTLVGHDTFTKVKPSAAS
Consider B9, for which, in data set [2], the “Association rate constant ka” value was 3.61 × 10^5 M^−1 S^−1, the “Dissociation rate constant kd” value is recorded as 9.92 × 10^−5 S^−1 and the dissociation constant (Kd) was found to be 274 pM.

B10: mcSA324: mutant core streptavidin with Y22T, Y83S, R84K, E101D, R103K, E116N (protein)
core streptavidin subunit: AEAGITGTWTNQLGSTFIVTAGADGALTGTYESAVGNAESRYVLTGRYDSAPATDGSGTALGWTVAWKNNSKNAHSATTWSGQYVGGADAKINTQWLLTSGTTNANAWKSTLVGHDTFTKVKPSAAS
As to B10, in data set [2], the “Association rate constant ka” value is recorded as 3.26 × 10^5 M^−1 S^−1, the “Dissociation rate constant kd” value is recorded as 7.18 × 10^−5 S^−1 and the Kd came out at 220 pM.

B11: mcSA424: mutant core streptavidin with Y22T, Y83S, R84K, E101D, R103K, E116Q (protein)
core streptavidin subunit: AEAGITGTWTNQLGSTFIVTAGADGALTGTYESAVGNAESRYVLTGRYDSAPATDGSGTALGWTVAWKNNSKNAHSATTWSGQYVGGADAKINTQWLLTSGTTQANAWKSTLVGHDTFTKVKPSAAS
Take B11: in data set [2], the “Association rate constant ka” value was 1.32 × 10^5 M^−1 S^−1, the “Dissociation rate constant kd” value is 1.12 × 10^−4 S^−1 and the equilibrium dissociation constant (Kd) worked out at 845 pM.

B12: mcSA314: mutant core streptavidin with Y22S, Y83S, R84K, E101D, R103K, E116N (protein)
core streptavidin subunit: AEAGITGTWSNQLGSTFIVTAGADGALTGTYESAVGNAESRYVLTGRYDSAPATDGSGTALGWTVAWKNNSKNAHSATTWSGQYVGGADAKINTQWLLTSGTTNANAWKSTLVGHDTFTKVKPSAAS
On to B12, for which, in data set [1], the “thermal stability compared with native streptavidin” value was “thermal stability equivalent to that of the native streptavidin”. In data set [2], the “Association rate constant ka” value is reported as 5.99 × 10^5 M^−1 S^−1, the “Dissociation rate constant kd” value is 1.58 × 10^−4 S^−1 and the equilibrium dissociation constant (Kd) came to 264 pM.
